# Results: patent publication CN113583125A (SUZHOU CENTERGENE PHARMACEUTICALS CO LTD, dated 2021)
# Changes are numbered by the printed parent chain.
# B1: SEQ ID NO:16蛋白 (VHH-sgs-HHHHHH) (VHH)
# VHH: QVQVVESGGGLVQAGDSLRLSCAASGRTFSSYAMGWFRQAPGKEREAVAAITWSGGSTYYADSVKGRFTISRDNTKNTVYLQMNSLKPEDTAVYYCAARDRADGSSWWDYWGQGTQVTVSS
# B2: SEQ ID NO:17蛋白 (VHH-sgs-HHHHHH) (VHH)
# VHH: B1 VHH with V4L, A14T, D16G, K43E, I51L, T52S, D62A, K65Q, T75A
# notes: In the resin experiments it is coupled to agarose
# B3: 1G9E (SEQ ID NO:12, VHH-sgs-HHHHHH) (VHH)
# VHH: QVQLQESGGGLVQAGGSLRLSCAASGRTGSTYDMGWFRQAPGKERESVAAINWDSARTYYASSVRGRFTISRDNAKKTVYLQMNSLKPEDTAVYTCGAGEGGTWDSWGQGTQVTVSS
# B4: SEQ ID NO:11蛋白 (1G9E突变体, VHH-sgs-HHHHHH) (VHH)
# VHH: B3 VHH with Y59H
# notes: Expressed in E. coli BL21 Star(DE3) and purified on nickel; In the resin experiments it is coupled to agarose
# B5: SEQ ID NO:18蛋白 (VHH-sgs-HHHHHH) (VHH)
# VHH: B1 VHH with V4L, A14T, D16G, K43E, D62A, K65Q, T75A
# Experiments:
# hCG (人绒毛膜促性腺激素) = molecular target: T1, hCG (人绒毛膜促性腺激素) (human, UniProt P0DN86 21-165); experiment: affinity chromatography, VHH coupled to CNBr-agarose, hCG from CHO supernatant, elution at pH 3, SDS-PAGE
# T1 construct: In the resin experiments hCG comes from the supernatant of CHO cells that express it stably
# T1 sequence (chain, as listed by the source, chain 1 of 2, other chains not shown): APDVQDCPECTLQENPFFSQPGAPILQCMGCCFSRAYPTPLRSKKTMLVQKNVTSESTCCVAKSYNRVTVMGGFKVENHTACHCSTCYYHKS
# [1] = molecular target: T2, SEQ ID NO:1蛋白 (FSH、hCG、TSH、FSH-CTP和hLH共同α链) (Homo sapiens (Human), UniProt P01215 25-116); experiment: Phage ELISA screen, VHH displayed on phage
# T2 construct: Immunogen for the alpaca and target of the Phage ELISA screen
# T2 sequence (P01215 25-116 limits assumed): as the sequence (chain, as listed by the source, chain 1 of 2, other chains not shown) above
# FSH (卵泡刺激素) [2] = molecular target: T3, FSH (卵泡刺激素) (human, UniProt P01225 19-129); experiment: ELISA, plate coated with 10 ug/ml FSH, VHH from 1 mg/ml in 2-fold steps, detection with anti-6xHis-HRP
# T3 construct: also called hFSH
# T3 sequence (chain, as listed by the source, chain 1 of 2): as the sequence (chain, as listed by the source, chain 1 of 2, other chains not shown) above
# T3 sequence (P01225 19-129, chain 2 of 2): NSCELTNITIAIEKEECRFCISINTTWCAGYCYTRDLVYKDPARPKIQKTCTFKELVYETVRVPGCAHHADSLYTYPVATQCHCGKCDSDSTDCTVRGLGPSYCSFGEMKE
# hLH (人促黄体生成素) = hLH (人促黄体生成素) (human, UniProt P01229 21-141); experiment: affinity purification on VHH-agarose (CNBr), SDS-PAGE of the eluate
# hLH (人促黄体生成素), sequence (chain, as listed by the source, chain 1 of 2): as the sequence (chain, as listed by the source, chain 1 of 2, other chains not shown) above
# hLH (人促黄体生成素), sequence (P01229 21-141, chain 2 of 2): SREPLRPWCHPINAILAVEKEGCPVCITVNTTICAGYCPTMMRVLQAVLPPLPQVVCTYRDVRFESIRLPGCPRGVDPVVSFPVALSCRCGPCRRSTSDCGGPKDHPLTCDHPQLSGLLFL
# FSH (卵泡刺激素) [3] = molecular target: T3, FSH (卵泡刺激素); experiment: as above
Binder,binding result (hCG (人绒毛膜促性腺激素)),binding result [1],binding result (FSH (卵泡刺激素) [2]),binding result (hLH (人促黄体生成素)),binding result (FSH (卵泡刺激素) [3])
B1,binds,binds,,,
B2,,binds,binds,binds,
B3,binds,,,,
B4,,,,binds,binds
B5,binds,binds,,,
